The results in this text go back to publication PMC13397619.

B1: NLV2 TCR alpha chain (CDR3α only) (parent)
chain: AGPMKTSYDKVI

One test covers variants of B1. Briefly: T-Switch: Jurkat TCRβ−/− cells expressing a CDR3 saturation-mutagenesis library, stained with two peptide-HLA-A*02:01 tetramers (original and novel peptide) plus anti-CD3, FACS-sorted into four gates, gDNA sequenced. The settings on record: with both tetramers (double-negative gate, binds neither): HLA-A*02:01 with … and with …, tetramers 1 µg/mL, 30 min on ice, SP, DP and SW gates expanded about 10 days between rounds ('two to three rounds of selection' in the Methods), gate DN: OPPOSITE: higher = more of the variant in the gate that binds neither peptide = LESS binding (or no expression; inferred). Fold enrichment of the CDR3 variant in one FACS gate of a two-tetram, unresolved parent, parent is a CDR3 fragment, scale: fold enrichment, numbering: sequential-on-construct, sequence starts at 1.
Consider […] (CDR3 as printed); I12R derived by comparing it with the table's wild-type CDR3 AGPMKTSYDKVI, for which the enrichment was 1.1.

Turning to […] (CDR3 as printed); S7M derived by comparing it with the table's wild-type CDR3 AGPMKTSYDKVI, the enrichment worked out at 1.3.

Turning to […] (CDR3 as printed); S7E derived by comparing it with the table's wild-type CDR3 AGPMKTSYDKVI, the enrichment came to 1.01.

Regarding […] (CDR3 as printed); K10C derived by comparing it with the table's wild-type CDR3 AGPMKTSYDKVI, the enrichment is 1.06.

As for […] (CDR3 as printed); A1P derived by comparing it with the table's wild-type CDR3 AGPMKTSYDKVI, the enrichment was 0.883.

With […] (CDR3 as printed); P3H derived by comparing it with the table's wild-type CDR3 AGPMKTSYDKVI, the enrichment came to 0.96.

With […] (CDR3 as printed); Y8A derived by comparing it with the table's wild-type CDR3 AGPMKTSYDKVI, the enrichment came out at 0.451.

With […] (CDR3 as printed); S7R derived by comparing it with the table's wild-type CDR3 AGPMKTSYDKVI, the enrichment is 0.927.

For the variant […] (CDR3 as printed); Y8L derived by comparing it with the table's wild-type CDR3 AGPMKTSYDKVI, the enrichment was 1.

For the variant […] (CDR3 as printed); T6N derived by comparing it with the table's wild-type CDR3 AGPMKTSYDKVI, the enrichment came out at 0.879.

Consider […] (CDR3 as printed); Y8D derived by comparing it with the table's wild-type CDR3 AGPMKTSYDKVI, for which the enrichment came out at 0.393.

For […] (CDR3 as printed); I12S derived by comparing it with the table's wild-type CDR3 AGPMKTSYDKVI, the enrichment came to 0.885.

Take […] (CDR3 as printed); K5H derived by comparing it with the table's wild-type CDR3 AGPMKTSYDKVI: the enrichment came out at 0.696.

[…] (CDR3 as printed); I12G derived by comparing it with the table's wild-type CDR3 AGPMKTSYDKVI: the enrichment was found to be 1.06.

As for […] (CDR3 as printed); D9I derived by comparing it with the table's wild-type CDR3 AGPMKTSYDKVI, the enrichment was 1.01.

For the variant […] (CDR3 as printed); T6M derived by comparing it with the table's wild-type CDR3 AGPMKTSYDKVI, the enrichment stood at 1.45.

Take […] (CDR3 as printed); T6I derived by comparing it with the table's wild-type CDR3 AGPMKTSYDKVI: the enrichment came out at 0.515.

Turning to […] (CDR3 as printed); A1M derived by comparing it with the table's wild-type CDR3 AGPMKTSYDKVI, the enrichment was found to be 0.803.

Consider […] (CDR3 as printed); T6L derived by comparing it with the table's wild-type CDR3 AGPMKTSYDKVI, for which the enrichment came to 1.1.

[…] (CDR3 as printed); K5N derived by comparing it with the table's wild-type CDR3 AGPMKTSYDKVI: the enrichment is 1.12.

As for […] (CDR3 as printed); D9E derived by comparing it with the table's wild-type CDR3 AGPMKTSYDKVI, the enrichment amounted to 1.03.

[…] (CDR3 as printed); V11S derived by comparing it with the table's wild-type CDR3 AGPMKTSYDKVI: the enrichment was 1.15.

Regarding […] (CDR3 as printed); K5L derived by comparing it with the table's wild-type CDR3 AGPMKTSYDKVI, the enrichment turned out to be 0.992.

As to […] (CDR3 as printed); S7H derived by comparing it with the table's wild-type CDR3 AGPMKTSYDKVI, the enrichment came to 0.722.

For […] (CDR3 as printed); I12N derived by comparing it with the table's wild-type CDR3 AGPMKTSYDKVI, the enrichment came to 1.04.

The test is the same for the next values; noted with them: with both tetramers (double-positive gate): HLA-A*02:01 with … and with …, tetramers 1 µg/mL, 30 min on ice, SP, DP and SW gates expanded about 10 days between rounds ('two to three rounds of selection' in the Methods), gate DP: higher = more of the variant in the gate that binds both peptides. Fold enrichment of the CDR3 variant in one FACS gate of a two-tetramer stain. SP/DP/SW gates were expanded and re-sorted bef, unresolved parent, parent is a CDR3 fragment, scale: fold enrichment, numbering: sequential-on-construct, sequence starts at 1.
For the variant […] (CDR3 as printed); I12R derived by comparing it with the table's wild-type CDR3 AGPMKTSYDKVI, the enrichment turned out to be 0.

With […] (CDR3 as printed); S7M derived by comparing it with the table's wild-type CDR3 AGPMKTSYDKVI, the enrichment was determined as 0.

Turning to […] (CDR3 as printed); S7E derived by comparing it with the table's wild-type CDR3 AGPMKTSYDKVI, the enrichment was determined as 0.

In the case of […] (CDR3 as printed); K10C derived by comparing it with the table's wild-type CDR3 AGPMKTSYDKVI, the enrichment is 0.

In the case of […] (CDR3 as printed); A1P derived by comparing it with the table's wild-type CDR3 AGPMKTSYDKVI, the enrichment came to 0.

For […] (CDR3 as printed); P3H derived by comparing it with the table's wild-type CDR3 AGPMKTSYDKVI, the enrichment was determined as 0.

[…] (CDR3 as printed); Y8A derived by comparing it with the table's wild-type CDR3 AGPMKTSYDKVI: the enrichment was 0.

As for […] (CDR3 as printed); S7R derived by comparing it with the table's wild-type CDR3 AGPMKTSYDKVI, the enrichment was found to be 0.

On to […] (CDR3 as printed); Y8L derived by comparing it with the table's wild-type CDR3 AGPMKTSYDKVI, for which the enrichment turned out to be 0.

As to […] (CDR3 as printed); T6N derived by comparing it with the table's wild-type CDR3 AGPMKTSYDKVI, the enrichment is 0.

Take […] (CDR3 as printed); Y8D derived by comparing it with the table's wild-type CDR3 AGPMKTSYDKVI: the enrichment was determined as 40.5.

Take […] (CDR3 as printed); I12S derived by comparing it with the table's wild-type CDR3 AGPMKTSYDKVI: the enrichment was 0.

Consider […] (CDR3 as printed); K5H derived by comparing it with the table's wild-type CDR3 AGPMKTSYDKVI, for which the enrichment came to 0.

Consider […] (CDR3 as printed); I12G derived by comparing it with the table's wild-type CDR3 AGPMKTSYDKVI, for which the enrichment came out at 0.

For […] (CDR3 as printed); D9I derived by comparing it with the table's wild-type CDR3 AGPMKTSYDKVI, the enrichment stood at 0.

Consider […] (CDR3 as printed); T6M derived by comparing it with the table's wild-type CDR3 AGPMKTSYDKVI, for which the enrichment was 0.

In the case of […] (CDR3 as printed); T6I derived by comparing it with the table's wild-type CDR3 AGPMKTSYDKVI, the enrichment was found to be 0.

Turning to […] (CDR3 as printed); A1M derived by comparing it with the table's wild-type CDR3 AGPMKTSYDKVI, the enrichment is 0.

In the case of […] (CDR3 as printed); T6L derived by comparing it with the table's wild-type CDR3 AGPMKTSYDKVI, the enrichment was 0.

With […] (CDR3 as printed); K5N derived by comparing it with the table's wild-type CDR3 AGPMKTSYDKVI, the enrichment stood at 0.

Regarding […] (CDR3 as printed); D9E derived by comparing it with the table's wild-type CDR3 AGPMKTSYDKVI, the enrichment was 0.

Take […] (CDR3 as printed); V11S derived by comparing it with the table's wild-type CDR3 AGPMKTSYDKVI: the enrichment is 0.

For […] (CDR3 as printed); K5L derived by comparing it with the table's wild-type CDR3 AGPMKTSYDKVI, the enrichment came out at 0.

Take […] (CDR3 as printed); S7H derived by comparing it with the table's wild-type CDR3 AGPMKTSYDKVI: the enrichment is 0.

In the case of […] (CDR3 as printed); I12N derived by comparing it with the table's wild-type CDR3 AGPMKTSYDKVI, the enrichment was 0.
